The target in the experiment is His6-tagged cytokeratin-19 (Novus Biologicals) (UniProt P08727). Kind of experiment: MST; His6-cytokeratin-19 labelled with RED-tris-NTA 2nd Generation dye, kept at 25 nM; BspC full-length or V-domain titrated from 5 uM to 0.153 nM; premium capillaries, Monolith NT.115 Pico, 20% excitation power.

pKd: −log10 of the molar value.

Chain of UniProt P08727 (P08727 whole entry): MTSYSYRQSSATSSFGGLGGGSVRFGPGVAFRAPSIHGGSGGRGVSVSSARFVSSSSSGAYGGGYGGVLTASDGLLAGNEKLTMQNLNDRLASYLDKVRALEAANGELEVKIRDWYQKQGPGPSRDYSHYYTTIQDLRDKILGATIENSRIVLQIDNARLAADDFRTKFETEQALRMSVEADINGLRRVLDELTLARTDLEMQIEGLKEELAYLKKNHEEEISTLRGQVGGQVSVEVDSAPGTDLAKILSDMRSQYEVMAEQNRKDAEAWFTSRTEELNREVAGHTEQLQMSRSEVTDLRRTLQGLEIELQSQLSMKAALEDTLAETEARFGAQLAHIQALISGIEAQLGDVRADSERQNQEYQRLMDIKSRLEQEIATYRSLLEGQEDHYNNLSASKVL

A word on the pKd: it is −log10 of the Kd, conventionally taken in molar units. In the case of “BspC V-domain protein (recombinant BspC consisting of only the variable domain) (domain or fragment)”, the negative-log Kd (pKd) was 6.44.
To “full-length BspC protein (Group B streptococcal surface protein C) (natural protein)” belongs 7.48.

These data come from publication PMC9600255.
